Reference: patent publication US20180038859A1
Each block holds one molecule with its values, some of them ahead of it.

Key:
Assay in all cases: cell-based or functional assay
CXCR1 (human) = CXCR1 (human) (UniProt P25024)
hCCR2b (human) = hCCR2b (human) (UniProt P41597)
hCCR2b (human), P41597 = target: hCCR2b (human), P41597
Sequence of hCCR2b (human), P41597 (P41597 whole entry): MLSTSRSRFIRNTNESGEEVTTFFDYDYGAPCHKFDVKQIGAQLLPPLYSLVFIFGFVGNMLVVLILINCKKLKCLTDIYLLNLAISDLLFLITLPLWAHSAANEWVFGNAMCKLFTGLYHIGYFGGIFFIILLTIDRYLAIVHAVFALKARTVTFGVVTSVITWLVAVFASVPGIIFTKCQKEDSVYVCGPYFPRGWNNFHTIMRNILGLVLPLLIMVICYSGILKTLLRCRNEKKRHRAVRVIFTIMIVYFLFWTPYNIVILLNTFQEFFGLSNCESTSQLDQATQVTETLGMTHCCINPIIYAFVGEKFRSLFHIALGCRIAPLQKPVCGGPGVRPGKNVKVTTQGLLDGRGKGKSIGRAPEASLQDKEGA

Sequence of hCCR2b (human) (P41597 whole entry): as above
Sequence of CXCR1 (human) (P25024 whole entry): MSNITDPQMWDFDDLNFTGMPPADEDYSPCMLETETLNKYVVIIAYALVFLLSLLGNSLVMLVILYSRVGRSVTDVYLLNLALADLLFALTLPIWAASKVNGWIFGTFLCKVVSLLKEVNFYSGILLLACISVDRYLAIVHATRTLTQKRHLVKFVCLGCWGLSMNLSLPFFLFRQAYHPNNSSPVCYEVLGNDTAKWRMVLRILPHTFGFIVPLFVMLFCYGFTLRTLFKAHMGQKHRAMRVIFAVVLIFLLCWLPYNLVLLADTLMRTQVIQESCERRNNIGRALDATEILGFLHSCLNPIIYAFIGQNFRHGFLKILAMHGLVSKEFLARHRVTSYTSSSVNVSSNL

EC50, agonist activity in an Aequorin assay (CXCR1 (human)): 5.2 nM
Molecule: recombinant native IL-8 (from UniProt P10145 28-99) (ligand)

EC50, activity (partial agonist) in an Aequorin assay (hCCR2b (human), P41597): 50.9 nM
B1: biotinMCP-2 (CCL8), P80075 24-99 (ligand)
chain: QPDSVSIPITCCFNVINRKIPIQRLESYTRITNIQCPKEAVIFKTKRGKEVCADPKERWVRDSMKHLDQIFQNLKP
modifications: here or on the partner: pyroGlu at position 1 (replaces Gln1); Lys75 epsilon-amino PEG-Biotin; C-terminal amide

Continued, molecule first:

Molecule: recombinant native MCP-1 (from UniProt P13500 24-99) (ligand)
EC50, agonist activity in an Aequorin assay (hCCR2b (human)): 3.1 nM

Molecule: recombinant native MCP-2 (from UniProt P80075 24-99) (ligand)
EC50, activity (partial agonist) in an Aequorin assay (hCCR2b (human)): 23.5 nM
